Experiments:
[1] = system: MCT-induced PH; test: Mouse model of MCT-induced PH, overall hemodynamic, echocardiographic and histopathological evaluation; format: in vivo, C57BL/6 mice; details: compared with MAC treatment
Source text: PH was induced in C57BL/6 mice (bodyweight: 25-30 g). The animals were obtained from ZET facility (Zentale Experimentelle Tierhaltung) of the University Hospital Jena (UKJ, Jena, Germany). Prior to PH induction, mice were allowed to acclimatize for at least 7 days with ad libitum access to food and water as well as controlled light/dark cycles. 41 animals were investigated divided into the following five experimental groups: • 1) sham induced controls (n=7) • 2) MCT induced PH (n=12) • 3) MCT induced PH+MAC (n=6) • 4) MCT induced PH+F8 IgG (n=8) • 5) MCT induced PH+KSF IgG (n=8) For PH induction, the Monocrotaline (MCT, Carl Roth, Germany) method was used. […] The clinical condition was assessed using an established score (clinical severity score=CSS) from 1 to 5 (1=no signs of clinical alterations, 2=low-grade impairment, 3=mid-grade impairment, 4=high-grade impairment, 5=exitus) obtained by evaluating spontaneous activity, reaction to exogenous stimuli and posture. […] Body temperature and respiratory rate were continuously monitored. All surrogate parameters of right ventricular (RV) morphology and function were assessed, among others, RV basal and medial diameters (in mm), RV length (in mm), tricuspid annular plane systolic excursion (TAPSE, in mm), right atrial area (RA area, in mm^2) or main pulmonary artery diameter (MPA, in mm). […] Data are expressed as mean±standard deviation. […]

[2] = system: MCT-induced PH; test: Right heart catheterization (RVPsys) in mouse model of MCT-induced PH; format: in vivo, C57BL/6 mice
Source text: PH was induced in C57BL/6 mice (bodyweight: 25-30 g). The animals were obtained from ZET facility (Zentale Experimentelle Tierhaltung) of the University Hospital Jena (UKJ, Jena, Germany). Prior to PH induction, mice were allowed to acclimatize for at least 7 days with ad libitum access to food and water as well as controlled light/dark cycles. 41 animals were investigated divided into the following five experimental groups: • 1) sham induced controls (n=7) • 2) MCT induced PH (n=12) • 3) MCT induced PH+MAC (n=6) • 4) MCT induced PH+F8 IgG (n=8) • 5) MCT induced PH+KSF IgG (n=8)
For PH induction, the Monocrotaline (MCT, Carl Roth, Germany) method was used.
The sham induced controls were injected with 30 μl NaCl not containing MCT at day 1 (single dose; intraperitoneally, i.p.). […] The other 4 experimental groups were injected with MCT to induce PH (single dose; intraperitoneally, i.p.; 60 mg/kg body weight; volume 30 μl). Animals in the MCT induced PH+MAC group received the drug (Macitentan, Actelion Pharmaceuticals Ltd.) from day 14 to day 28 (once daily; per os; 15 mg/kg body weight). Animals in the MCT induced PH+F8 IgG group received F8 IgG 3 times on day 14, 16 and 18 (intravenously, i.v.; 195 μg/injection; volume 200 μl). Similarly, animals in the MCT induced PH+KSF IgG group received KSF IgG 3 times on day 14, 16 and 18 (intravenously, i.v.; 195 μg/injection; volume 120 μl).
On day 28 after MCT injection, mice of all experimental groups were deeply anesthetized with a single dose of 100 mg/kg body weight ketamine and 10 mg/kg body weight Xylazin in approximately 60 μl each administered i.p.
Right heart catheterization using a 1.4 F micro conductance pressure-volume catheter (Model SPR-839; Millar Instruments Inc; PowerLab system, ADInstruments Ltd., Oxford, UK) was performed via the right vena jugularis interna to measure the systolic right ventricular pressure and thereby verify the success of the experimental setting. Mice were then sacrificed in deep anesthesia and analgesia to carry out cardiac blood collection after thoracotomy and to harvest the organs.
Statistical analyses were performed using IBM SPSS statistical software, version 28.0 (IBM SPSS Statistics for Windows. Armonk, NY, USA). Data are expressed as mean±standard deviation. Kruskal-Wallis and Mann-Whitney-U test were used to test for significant differences between the different groups. A p-value<0.05 as statistically significant.

B1: F8 IgG: Chimaeric anti-ED-A antibody: human F8 VH/VL fused to murine IgG2a constant regions; heavy chain SEQ ID NO: 11, light chain SEQ ID NO: 12 (antibody)
heavy: EVQLLESGGGLVQPGGSLRLSCAASGFTFSLFTMSWVRQAPGKGLEWVSAISGSGGSTYYADSVKGRFTISRDNSKNTLYLQMNSLRAEDTAVYYCAKSTHLYLFDYWGQGTLVTVSSAKTTAPSVYPLAPVCGDTTGSSVTLGCLVKGYFPEPVTLTWNSGSLSSGVHTFPAVLQSDLYTLSSSVTVTSSTWPSQSITCNVAHPASSTKVDKKIEPRGPTIKPCPPCKCPAPNLLGGPSVFIFPPKIKDVLMISLSPIVTCVVVDVSEDDPDVQISWFVNNVEVHTAQTQTHREDYNSTLRVVSALPIQHQDWMSGKEFKCKVNNKDLPAPIERTISKPKGSVRAPQVYVLPPPEEEMTKKQVTLTCMVTDFMPEDIYVEWTNNGKTELNYKNTEPVLDSDGSYFMYSKLRVEKKNWVERNSYSCSVVHEGLHNHHTTKSFSRTPGK
light: EIVLTQSPGTLSLSPGERATLSCRASQSVSMPFLAWYQQKPGQAPRLLIYGASSRATGIPDRFSGSGSGTDFTLTISRLEPEDFAVYYCQQMRGRPPTFGQGTKVEIKRTDAAPTVSIFPPSSEQLTSGGASVVCFLNNFYPKDINVKWKIDGSERQNGVLNSWTDQDSKDSTYSMSSTLTLTKDEYERHNSYTCEATHKTSTSPIVKSFNRNEC
[1]
  beneficial effects with respect to the majority of the parameters (RVPsys, echocardiographic signs, lung tissue damage): superior to MAC treatment
[2]; day 28, F8 IgG 195 μg i.v. day 14, 16, 18 (p=0.010), MAC 15 mg/kg per os once daily day 14-28 (n.s.)
  attenuation in RVPsys compared to the MCT-induced PH group without treatment (positive control): significant attenuation
[2]; day 28, p=0.003
  RVPsys compared to the group treated with the negative control antibody KSF IgG: significantly reduced
[2]; in contrast to treatment with KSF IgG
  pressure values in the right ventricle (RVPsys): significant reduction
